Test results published in US11161908.

Target: human BAFF-R-GFP fusion protein expressed on the surface of mouse fibroblast (L) cells, clone D2C (human) (UniProt Q96RJ3)
Assay: flow cytometry, recombinant BAFF at 0.5 ug/10^6 D2C L cells, detected with anti-BAFF-PE, no antibody; unstained cells: 0.0217

recombinant BAFF ligand (from UniProt Q9Y275 134-285)
percent of cells in the BAFF-PE gate: 59.6%
